According to patent US20190185532A1 (UNIVERSITY OF BIRMINGHAM, published 2019):
Residue numbers refer to the chain shown, from its start.

Columns and labels:
Assay in all cases: flow cytometry on transfected HEK293T cells
[1] = biological target: T1, CD93^C136S (GFP tag, expressed in HEK293T) (human, UniProt Q9NPY3 22-652)
T1 construct: not shown: C-terminal GFP tag from vector pEGFP-N1
T1 sequence: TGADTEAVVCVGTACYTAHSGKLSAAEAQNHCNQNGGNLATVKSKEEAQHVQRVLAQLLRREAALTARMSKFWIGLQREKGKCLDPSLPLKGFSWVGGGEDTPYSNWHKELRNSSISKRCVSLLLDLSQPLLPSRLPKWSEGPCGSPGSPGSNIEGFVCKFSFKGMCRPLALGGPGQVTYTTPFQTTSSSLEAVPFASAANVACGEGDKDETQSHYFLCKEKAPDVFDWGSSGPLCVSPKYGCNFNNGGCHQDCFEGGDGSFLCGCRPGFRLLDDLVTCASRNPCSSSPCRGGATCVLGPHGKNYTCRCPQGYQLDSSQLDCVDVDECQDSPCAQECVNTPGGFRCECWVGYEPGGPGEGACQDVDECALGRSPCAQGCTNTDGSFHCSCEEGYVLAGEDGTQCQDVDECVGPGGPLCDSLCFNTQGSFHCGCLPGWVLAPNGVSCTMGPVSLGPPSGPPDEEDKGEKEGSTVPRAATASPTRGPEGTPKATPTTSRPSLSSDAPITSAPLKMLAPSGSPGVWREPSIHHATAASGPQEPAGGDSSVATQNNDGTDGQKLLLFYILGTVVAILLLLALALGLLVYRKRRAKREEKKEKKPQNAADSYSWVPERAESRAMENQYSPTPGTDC

[2] = biological target: T2, CD93^C104S (GFP tag, expressed in HEK293T) (human, UniProt Q9NPY3 22-652)
T2 construct: not shown: C-terminal GFP tag from vector pEGFP-N1
T2 sequence: T1 sequence with C83S, S115C

[3] = biological target: T3, CLEC14A^C103S (GFP tag, expressed in HEK293T) (human, UniProt Q86T13 22-490)
T3 construct: not shown: C-terminal GFP tag from vector pEGFP-N1
T3 sequence: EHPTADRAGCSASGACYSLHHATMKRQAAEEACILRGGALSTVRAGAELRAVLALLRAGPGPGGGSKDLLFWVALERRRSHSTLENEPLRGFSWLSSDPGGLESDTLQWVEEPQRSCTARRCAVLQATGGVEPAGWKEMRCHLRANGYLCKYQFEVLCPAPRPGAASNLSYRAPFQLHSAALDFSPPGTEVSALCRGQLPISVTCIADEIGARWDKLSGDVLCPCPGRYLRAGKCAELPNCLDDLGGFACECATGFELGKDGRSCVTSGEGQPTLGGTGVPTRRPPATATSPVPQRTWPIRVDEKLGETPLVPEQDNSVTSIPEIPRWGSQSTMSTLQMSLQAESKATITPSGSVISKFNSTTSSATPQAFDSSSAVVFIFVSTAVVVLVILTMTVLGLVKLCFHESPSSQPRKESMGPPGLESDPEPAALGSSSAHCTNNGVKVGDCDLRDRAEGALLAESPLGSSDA

Measured: binding result

B1: biotinylated MMRN2^495-674 (human, expressed in E. coli with a His tag and a BirA tag) (ligand)
chain: QKLYLDLDVIREGQRDATRALEETQVSLDERRQLDGSSLQALQNAVDAVSLAVDAHKAEGERARAATSRLRSQVQALDDEVGALKAAAAEARHEVRQLHSAFAALLEDALRHEAVLAALFGEEVLEEMSEQTPGPLPLSYEQIRVALQDAASGLQEQALGWDELAARVTALEQASEPPRP
modifications: biotin on the BirA tag
notes: Used for staining of transfected HEK293T cells in flow cytometry, detected with streptavidin-PE; not shown: BirA tag and His tag (vector pET23a)
no binding (tested: 20 µg/mL): all assays above
